This is an account of results in the RNAGym collection of RNA variant scans (doi:10.1093/molbev/msab373).

First the molecules themselves.
B1: Azoarcus group I ribozyme (parent)
chain: GUGCCUUGCGCCGGGAAACCACGCAAGGGAUGGUGUCAAAUUCGGCGAAACCUAAGCGCCCGCCCGGGCGUAUGGCAACGCCGAGCCAAGCUUCGGCGCCUGCGCCGAUGAAGGUGUAGAGACUAGACGGCACCCACCUAAGGCAAACGCUAUGGUGAAGGCAUAGUCCAGGGAGUGGCGAAAGUCACACAAACCGG

Variants of B1 are the subject of this data set. Kind of data set: reverse-splicing fitness (ratio to wild type); higher = more active; in vitro selection; Mg2+ level not given. In short, it runs like this:
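An in vitro group I ribozyme library with randomized positions was T7-transcribed and gel-purified. In triplicate, 10 pmol RNA in EPPS pH 7.5 was reacted with 50 pmoles of a 30-nt RNA substrate for 1 h at 37 °C across several added MgCl2 levels (1–48 mM), then stopped with EDTA. Products were reverse transcribed from a substrate-complementary primer, PCR-amplified and sequenced (HiSeq 4000). Fitness is a variant's read proportion after selection over that before, normalised to wild type.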
Regarding GUGCCUUGCGCCGGGAAACCACGCAAGGGAUGGUGUCAAAUUCGGCGAAACCUAAGCGCCCGCCCGGGCGUAUGGCAACGCAGAGCCAAGCUUCGGCGCCUGCGCCGAUGUAGGUGUAGGGACUAGACGGCACCCACCUAAGGCCAACGAUAUGGUGAAGGCAUAGUCUAGGGAGAGGCGAAAGUCACACAAACCGG, the reverse-splicing fitness is 0.0189.
For GUGCCUUGCGCCGGGAAACCACGCAAGGGAUGGUGUCAAAUUCGGCGAAACCUAAGCGCCCGCCCGGGCGUAUGGCAACGCAGAGCCAAGCUUCGGCGCCUGCGCCGAUGUAGGUGUAGGGACUAGACGGCACCCACCUAAGGCCAACGAUAUGGUGAAGGCAUAGUCUAGGGAGCGGCGAAAGUCACACAAACCGG the value was 0.0122; for GUGCCUUGCGCCGGGAAACCACGCAAGGGAUGGUGUCAAAUUCGGCGAAACCUAAGCGCCCGCCCGGGCGUAUGGCAACGCAGAGCCAAGCUUCGGCGCCUGCGCCGAUGUAGGUGUAGGGACUAGACGGCACCCACCUAAGGCCAACGAUAUGGUGAAGGCAUAGUCUAGGGAGGGGCGAAAGUCACACAAACCGG, 0.0059.
For GUGCCUUGCGCCGGGAAACCACGCAAGGGAUGGUGUCAAAUUCGGCGAAACCUAAGCGCCCGCCCGGGCGUAUGGCAACGCAGAGCCAAGCUUCGGCGCCUGCGCCGAUGUAGGUGUAGGGACUAGACGGCACCCACCUAAGGCCAACGCUAUGGUGAAGGCAUAGUCCAGGGAGUGGCGAAAGUCACACAAACCGG the value was 0.0126.
The figure for GUGCCUUGCGCCGGGAAACCACGCAAGGGAUGGUGUCAAAUUCGGCGAAACCUAAGCGCCCGCCCGGGCGUAUGGCAACGCAGAGCCAAGCUUCGGCGCCUGCGCCGAUGUAGGUGUAGGGACUAGACGGCACCCACCUAAGGCCAACGGUAUGGUGAAGGCAUAGUCGAGGGAGUGGCGAAAGUCACACAAACCGG is 0.00674; for GUGCCUUGCGCCGGGAAACCACGCAAGGGAUGGUGUCAAAUUCGGCGAAACCUAAGCGCCCGCCCGGGCGUAUGGCAACGCAGAGCCAAGCUUCGGCGCCUGCGCCGAUGUAGGUGUAGGGACUAGACGGCACCCACCUAAGGCCAACGGUAUGGUGAAGGCAUAGUCAAGGGAGUGGCGAAAGUCACACAAACCGG it is 0.00846.
Turning to GUGCCUUGCGCCGGGAAACCACGCAAGGGAUGGUGUCAAAUUCGGCGAAACCUAAGCGCCCGCCCGGGCGUAUGGCAACGCAGAGCCAAGCUUCGGCGCCUGCGCCGAUGUAGGUGUAGGGACUAGACGGCACCCACCUAAGGCCAACGGUAUGGUGAAGGCAUAGUCUAGGGAGUGGCGAAAGUCACACAAACCGG, the reverse-splicing fitness came out at 0.00766.
Take GUGCCUUGCGCCGGGAAACCACGCAAGGGAUGGUGUCAAAUUCGGCGAAACCUAAGCGCCCGCCCGGGCGUAUGGCAACGCAGAGCCAAGCUUCGGCGCCUGCGCCGAUGUAGGUGUAGGGACUAGACGGCACCCACCUAAGGCAAACGCUAUGGUGAAGGCAUAGUCCAGGGAGUGGCGAAAGUCACACAAACCGG: the reverse-splicing fitness came to 0.0152.
For the variant GUGCCUUGCGCCGGGAAACCACGCAAGGGAUGGUGUCAAAUUCGGCGAAACCUAAGCGCCCGCCCGGGCGUAUGGCAACGCAGAGCCAAGCUUCGGCGCCUGCGCCGAUGUAGGUGUAGGGACUAGACGGCACCCACCUAAGGCCAACGGUAUGGUGAAGGCAUAGUCAAGGGAGAGGCGAAAGUCACACAAACCGG, the reverse-splicing fitness worked out at 0.00838.
For GUGCCUUGCGCCGGGAAACCACGCAAGGGAUGGUGUCAAAUUCGGCGAAACCUAAGCGCCCGCCCGGGCGUAUGGCAACGCAGAGCCAAGCUUCGGCGCCUGCGCCGAUGUAGGUGUAGGGACUAGACGGCACCCACCUAAGGCCAACGGUAUGGUGAAGGCAUAGUCAAGGGAGCGGCGAAAGUCACACAAACCGG the value was 0.00639; for GUGCCUUGCGCCGGGAAACCACGCAAGGGAUGGUGUCAAAUUCGGCGAAACCUAAGCGCCCGCCCGGGCGUAUGGCAACGCAGAGCCAAGCUUCGGCGCCUGCGCCGAUGUAGGUGUAGGGACUAGACGGCACCCACCUAAGGCCAACGGUAUGGUGAAGGCAUAGUCAAGGGAGGGGCGAAAGUCACACAAACCGG, 0.00554.
The figure for GUGCCUUGCGCCGGGAAACCACGCAAGGGAUGGUGUCAAAUUCGGCGAAACCUAAGCGCCCGCCCGGGCGUAUGGCAACGCAGAGCCAAGCUUCGGCGCCUGCGCCGAUGUAGGUGUAGGGACUAGACGGCACCCACCUAAGGCCAACGGUAUGGUGAAGGCAUAGUCGAGGGAGCGGCGAAAGUCACACAAACCGG is 0.00725.
The figure for GUGCCUUGCGCCGGGAAACCACGCAAGGGAUGGUGUCAAAUUCGGCGAAACCUAAGCGCCCGCCCGGGCGUAUGGCAACGCAGAGCCAAGCUUCGGCGCCUGCGCCGAUGUAGGUGUAGGGACUAGACGGCACCCACCUAAGGCCAACGGUAUGGUGAAGGCAUAGUCGAGGGAGAGGCGAAAGUCACACAAACCGG is 0.00863; for GUGCCUUGCGCCGGGAAACCACGCAAGGGAUGGUGUCAAAUUCGGCGAAACCUAAGCGCCCGCCCGGGCGUAUGGCAACGCAGAGCCAAGCUUCGGCGCCUGCGCCGAUGUAGGUGUAGGGACUAGACGGCACCCACCUAAGGCCAACGGUAUGGUGAAGGCAUAGUCGAGGGAGGGGCGAAAGUCACACAAACCGG it is 0.00452; for GUGCCUUGCGCCGGGAAACCACGCAAGGGAUGGUGUCAAAUUCGGCGAAACCUAAGCGCCCGCCCGGGCGUAUGGCAACGCAGAGCCAAGCUUCGGCGCCUGCGCCGAUGUAGGUGUAGGGACUAGACGGCACCCACCUAAGGCCAACGAUAUGGUGAAGGCAUAGUCAAGGGAGUGGCGAAAGUCACACAAACCGG it is 0.00789.
On to GUGCCUUGCGCCGGGAAACCACGCAAGGGAUGGUGUCAAAUUCGGCGAAACCUAAGCGCCCGCCCGGGCGUAUGGCAACGCAGAGCCAAGCUUCGGCGCCUGCGCCGAUGUAGGUGUAGGGACUAGACGGCACCCACCUAAGGCCAACGAUAUGGUGAAGGCAUAGUCUAGGGAGUGGCGAAAGUCACACAAACCGG, for which the reverse-splicing fitness came to 0.00834.
For GUGCCUUGCGCCGGGAAACCACGCAAGGGAUGGUGUCAAAUUCGGCGAAACCUAAGCGCCCGCCCGGGCGUAUGGCAACGCAGAGCCAAGCUUCGGCGCCUGCGCCGAUGUAGGUGUAGGGACUAGACGGCACCCACCUAAGGCCAACGAUAUGGUGAAGGCAUAGUCGAGGGAGUGGCGAAAGUCACACAAACCGG the value was 0.00858; for GUGCCUUGCGCCGGGAAACCACGCAAGGGAUGGUGUCAAAUUCGGCGAAACCUAAGCGCCCGCCCGGGCGUAUGGCAACGCAGAGCCAAGCUUCGGCGCCUGCGCCGAUGUAGGUGUAGGGACUAGACGGCACCCACCUAAGGCCAACGAUAUGGUGAAGGCAUAGUCGAGGGAGGGGCGAAAGUCACACAAACCGG, 0.00564; for GUGCCUUGCGCCGGGAAACCACGCAAGGGAUGGUGUCAAAUUCGGCGAAACCUAAGCGCCCGCCCGGGCGUAUGGCAACGCAGAGCCAAGCUUCGGCGCCUGCGCCGAUGUAGGUGUAGGGACUAGACGGCACCCACCUAAGGCCAACGAUAUGGUGAAGGCAUAGUCGAGGGAGAGGCGAAAGUCACACAAACCGG, 0.0253.
The figure for GUGCCUUGCGCCGGGAAACCACGCAAGGGAUGGUGUCAAAUUCGGCGAAACCUAAGCGCCCGCCCGGGCGUAUGGCAACGCAGAGCCAAGCUUCGGCGCCUGCGCCGAUGUAGGUGUAGGGACUAGACGGCACCCACCUAAGGCCAACGAUAUGGUGAAGGCAUAGUCGAGGGAGCGGCGAAAGUCACACAAACCGG is 0.0151.
For GUGCCUUGCGCCGGGAAACCACGCAAGGGAUGGUGUCAAAUUCGGCGAAACCUAAGCGCCCGCCCGGGCGUAUGGCAACGCAGAGCCAAGCUUCGGCGCCUGCGCCGAUGUAGGUGUAGGGACUAGACGGCACCCACCUAAGGCCAACGAUAUGGUGAAGGCAUAGUCCAGGGAGUGGCGAAAGUCACACAAACCGG the value was 0.00759.
Consider GUGCCUUGCGCCGGGAAACCACGCAAGGGAUGGUGUCAAAUUCGGCGAAACCUAAGCGCCCGCCCGGGCGUAUGGCAACGCAGAGCCAAGCUUCGGCGCCUGCGCCGAUGUAGGUGUAGGGACUAGACGGCACCCACCUAAGGCCAACGGUAUGGUGAAGGCAUAGUCCAGGGAGUGGCGAAAGUCACACAAACCGG, for which the reverse-splicing fitness was determined as 0.00667.
The figure for GUGCCUUGCGCCGGGAAACCACGCAAGGGAUGGUGUCAAAUUCGGCGAAACCUAAGCGCCCGCCCGGGCGUAUGGCAACGCAGAGCCAAGCUUCGGCGCCUGCGCCGAUGUAGGUGUAGGGACUAGACGGCACCCACCUAAGGCCAACGAUAUGGUGAAGGCAUAGUCCAGGGAGAGGCGAAAGUCACACAAACCGG is 0.00932.
For GUGCCUUGCGCCGGGAAACCACGCAAGGGAUGGUGUCAAAUUCGGCGAAACCUAAGCGCCCGCCCGGGCGUAUGGCAACGCAGAGCCAAGCUUCGGCGCCUGCGCCGAUGUAGGUGUAGGGACUAGACGGCACCCACCUAAGGCCAACGAUAUGGUGAAGGCAUAGUCCAGGGAGCGGCGAAAGUCACACAAACCGG the value was 0.0098; for GUGCCUUGCGCCGGGAAACCACGCAAGGGAUGGUGUCAAAUUCGGCGAAACCUAAGCGCCCGCCCGGGCGUAUGGCAACGCAGAGCCAAGCUUCGGCGCCUGCGCCGAUGUAGGUGUAGGGACUAGACGGCACCCACCUAAGGCCAACGAUAUGGUGAAGGCAUAGUCCAGGGAGGGGCGAAAGUCACACAAACCGG, 0.00549.
The figure for GUGCCUUGCGCCGGGAAACCACGCAAGGGAUGGUGUCAAAUUCGGCGAAACCUAAGCGCCCGCCCGGGCGUAUGGCAACGCAGAGCCAAGCUUCGGCGCCUGCGCCGAUGUAGGUGUAGGGACUAGACGGCACCCACCUAAGGCCAACGAUAUGGUGAAGGCAUAGUCAAGGGAGAGGCGAAAGUCACACAAACCGG is 0.0128; for GUGCCUUGCGCCGGGAAACCACGCAAGGGAUGGUGUCAAAUUCGGCGAAACCUAAGCGCCCGCCCGGGCGUAUGGCAACGCAGAGCCAAGCUUCGGCGCCUGCGCCGAUGUAGGUGUAGGGACUAGACGGCACCCACCUAAGGCCAACGAUAUGGUGAAGGCAUAGUCAAGGGAGCGGCGAAAGUCACACAAACCGG it is 0.00664; for GUGCCUUGCGCCGGGAAACCACGCAAGGGAUGGUGUCAAAUUCGGCGAAACCUAAGCGCCCGCCCGGGCGUAUGGCAACGCAGAGCCAAGCUUCGGCGCCUGCGCCGAUGUAGGUGUAGGGACUAGACGGCACCCACCUAAGGCCAACGAUAUGGUGAAGGCAUAGUCAAGGGAGGGGCGAAAGUCACACAAACCGG it is 0.00551.
Regarding GUGCCUUGCGCCGGGAAACCACGCAAGGGAUGGUGUCAAAUUCGGCGAAACCUAAGCGCCCGCCCGGGCGUAUGGCAACGCAGAGCCAAGCUUCGGCGCCUGCGCCGAUGUAGGUGUAGGGACUAGACGGCACCCACCUAAGGCCAACGGUAUGGUGAAGGCAUAGUCUAGGGAGAGGCGAAAGUCACACAAACCGG, the reverse-splicing fitness worked out at 0.0132.
With GUGCCUUGCGCCGGGAAACCACGCAAGGGAUGGUGUCAAAUUCGGCGAAACCUAAGCGCCCGCCCGGGCGUAUGGCAACGCAGAGCCAAGCUUCGGCGCCUGCGCCGAUGUAGGUGUAGGGACUAGACGGCACCCACCUAAGGCCAACGGUAUGGUGAAGGCAUAGUCUAGGGAGCGGCGAAAGUCACACAAACCGG, the reverse-splicing fitness is 0.0117.
